Entries after “also recorded” stand apart in the source; their conditions may differ.
Experiments:
normal cells = assay: Inhibition of cell cycle progression (PI staining, flow cytometry); type: cell-based; conditions: 10 uM, 8 hrs
Protocol: (§1) HCCs and normal cells were treated with 10 uM protein (Non-CP-SOCS3 (HS3B) and iCP-SOSC3 (HM165S3B)) for 8 hrs. After the treatment, cells were washed twice with cold PBS and re-suspended in 1 ml cold PBS, fixed in cold 70% ethanol, washed with cold PBS twice and re-suspended in PI master mix (PI 10 ug/ml (SIGMA, USA), 50 ug/ml RNase A (Invitrogen, USA) in staining buffer) at a final cell density of 2×10^5 cell/ml. The cell mixtures were incubated 30 min in the dark at 4° C. Flow cytometric analysis was immediately performed using a guava easyCyte™ 8 Instrument (Merck Millipore, Darmstadt, Germany).

Huh-7 cells = assay: Wound cell migration assay; type: cell-based, human; conditions: 10 μM 2 hrs, additional 24-72 hrs
Protocol: (§2) Cells were seeded into 12-well plates, grown to 90% confluence, and incubated with 10 μM Non-CP-SOCS3 (HS3B), iCP-SOCS3 (HM165S3B) in serum-free medium for 2 hrs prior to changing the growth medium (recommended medium by the supplier). The cells were washed twice with PBS, and the monolayer at the center of the well was “wounded” by scraping with a pipette tip. Cells were cultured for an additional 24-72 hrs and cell migration was observed by phase contrast microscopy (Nikon, ECLIPSE Ts2). The migration was quantified by counting the number of cells that migrated from the wound edge into the clear area.

Chang liver cells = assay: Wound cell migration assay; type: cell-based, human; conditions: 10 μM 2 hrs, additional 24-72 hrs
Protocol: as §2

HepG2 cells = assay: Wound cell migration assay; type: cell-based, human; conditions: 10 μM 2 hrs, additional 24-72 hrs
Protocol: as §2

[1] = tested on: HCCs (Hep3B, HepG2, Huh7 and SK-HEP-1); assay: Inhibition of cell cycle progression (PI staining, flow cytometry); type: cell-based, human; conditions: 10 uM, 8 hrs
Protocol: To further determine the effect of iCP-SOCS3 on the tumorigenicity of hepatocellular carcinoma cells, we subsequently investigated whether iCP-SOCS3 regulates cell cycle progression in HCCs (Hep3B, HepG2, Huh7 and SK-HEP-1).
as §1

NIH3T3 cells = assay: Intracellular delivery and localization of FITC-labeled SOCS3 recombinant proteins (confocal microscopy); type: cell-based, mouse; conditions: 10 μM FITC-labeled SOCS3 protein, 1 hour, 37° C.
Protocol: To examine cell-permeability of SOCS3 recombinant protein, SOCS3 recombinant proteins were conjugated to 5/6-fluorescein isothiocyanate (FITC). RAW 264.7 (KCLB, Seoul, South Korea) (FIG. 20) or NIH3T3 cells (KCLB, Seoul, South Korea) (FIG. 21) were treated with 10 μM FITC-labeled SOCS3 recombinant proteins and cultivated for 1 hr at 37° C.
After cultivation, the cells were washed three times with ice-cold PBS (Phosphate-buffered saline, Hyclone, USA) and treated with proteinase K (10 μg/mL, SIGMA, USA) to remove surface-bound proteins, and internalized proteins were measured by flow cytometry (FlowJo cytometric analysis software, Guava, Millipore, Darmstadt, Germany). Untreated cells (gray) and equimolar concentration of unconjugated FITC (FITC only, green)-treated cells were served as control (FIG. 20). Each of NIH3T3 cells was incubated for 1 hour at 37° C. with 10 μM FITC-labeled SOCS3 protein. For nuclear staining, a mixture of […] Mounting Medium (Vector laboratories, Burlingame, Calif.) and DAPI (4′,6-diamidino-2-phenylindole) was added to NIH3T3 cells, and visualized using a confocal laser microscope (LSM700, Zeiss, Germany) (FIG. 21).

[2] = tested on: Bcl-2, NF-κB (p-p65), cleaved caspase-3 in Hep3B cells; assay: Immunoblotting of apoptosis-related proteins; type: cell-based, human; conditions: 10 μM, 24 hr
Protocol: (§3) Cells were treated for 24 hr with 10 μM HS3B or HM165S3B proteins, lysed in RIPA lysis buffer containing proteinase inhibitor cocktail, incubated for 15 min at 4° C., and centrifuged at 13,000 rpm for 10 min at 4° C. Equal amounts of lysates were separated on 15% SDS-PAGE gels and transferred to a nitrocellulose membrane. The membranes were blocked using 5% skim milk or 5% Albumin in TBST and incubated with the following antibodies: anti-Bcl-2 (Santa Cruz biotechnology), anti-Cleaved Caspase 3 (Cell Signaling Technology), anti-phospho-p65 and anti-p65 (Cell Signaling Technology), then HRP conjugated anti-mouse or anti-rabbit secondary antibody. The expression of each protein was determined by immunoblotting with indicated antibodies. An antibody against β-actin was used as a loading control.

[3] = tested on: Bcl-2, NF-κB (p-p65), cleaved caspase-3 in HepG2 cells; assay: Immunoblotting of apoptosis-related proteins; type: cell-based, human; conditions: 10 μM, 24 hr
Protocol: as §3

TNF-α = assay: LPS/IFN-γ-induced cytokine secretion in peritoneal macrophages (cytometric bead array), TNF-α; type: cell-based, C3H/HeJ mice; conditions: 10 μM protein; IFN-γ and LPS
Protocol: Peritoneal macrophages were obtained from C3H/HeJ mice (Doo-Yeol Biotech Co. Ltd. Korea) Peritoneal macrophages were incubated with 10 μM SOCS3 recombinant proteins (1:HS3, 2:HM165S3, 3:HM165S3A and 4:HM165S3B, respectively) for 1 hr at 37° C. and then stimulated them with LPS (Lipopolysaccharide)(500 ng/ml) and/or IFN-γ (100 U/ml) without removing iCP-SOCS3 proteins for 3, 6, or 9 hrs. The culture media were collected, and the extracellular levels of cytokine (TNF-α, IL-6) were measured by a cytometric bead array (BD Pharmingen, San Diego, Calif., USA) according to the manufacturer's instructions.

B1: HM165S3B: His-tagged recombinant protein of aMTD165, human SOCS3 and solubilization domain B; prototype improved cell-permeable SOCS3 (protein)
chain: MGSSHHHHHHSSGLVPRGSHMALAVPVALAIVPVTHSKFPAAGMETSRPLDTSLRLKTFSSKSEYQLVVNAVRKLQESGFYWSAVTGGEANLLLSAEPAGTFLIRDSSDQRHFFTLSVKTQSGTKNLRIQCEGGSFSLQSDPRSTQPVPRFDCVLKLVHHYMETPPPGAPSFPSPPTEPSSEVPEQPSAQPLPGSPPRRAYYIYSGGEKIPLVLSRPLSSNVATLQHLCRKTVNGHLDSYEKVTQLPGPIREFLDQYDAPLGSMAEQSDKDVKYYTLEEIQKHKDSKSTWVILHHKVYDLTKFLEEHPGGEEVLGEQAGGDATENFEDVGHSTDARELSKTYIIGELHPDDRSKIAKPSETL
modifications: Amino acid sequence of HM165S3B
- cell cycle progression in normal cells (normal cells): did not inhibit cell cycle progression
- wound cell migration, Huh-7 (Huh-7 cells): suppressed the repopulation of wounded monolayer
- wound cell migration, normal Chang liver cells (Chang liver cells): had no effect on the cell migration
- wound cell migration, HepG2 (HepG2 cells): suppressed the repopulation of wounded monolayer
- cell cycle progression in HCCs [1]: efficiently inhibited cell cycle progression
- intracellular delivery and localization (NIH3T3 cells): localized to various extents in cytoplasm; also recorded: displayed more uniform cellular distribution
- expression of Bcl-2, Hep3B [2]: dramatically reduced
- expression of NF-κB (p-p65), Hep3B [2]: dramatically reduced
- level of cleaved caspase-3, Hep3B [2]: increased
- expression of Bcl-2, HepG2 [3]: dramatically reduced
- expression of NF-κB (p-p65), HepG2 [3]: dramatically reduced
- level of cleaved caspase-3, HepG2 [3]: increased
- effect on TNF-α secretion (TNF-α): showed the greatest inhibitory effect on cytokine secretion
